Assay: yeast display, Sf9 membrane polyspecificity reagent, FACS + sequencing; frameworks hold sequencing errors
Outline: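 Genes from sorted yeast were amplified by colony PCR, read by MiSeq 2 × 250 sequencing and filtered on CDR length. These cells carried a synthetic nanobody library in Saccharomyces cerevisiae BJ5465 and were sorted by FACS into low and high (top ~1%) gates on anti-HA and streptavidin fluorescence. Polyreactivity is labelled according to the gate of origin.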

Sequence	polyreactivity (PSR sort gate)
QVQLGESGGGLVQAGGSLRLSCAASGFIFGYYAMGWYRQAPGKERELVAAINYNDDSTYYADSVKGRFTISRDNAKNTVYLQMNSLKPEDTAVYYCAAGVWYGYYVSIYLDYDYWGQGTQVTLSS	low polyreactivity
QVQLGESGGGLVQAGGSLRLSCAASGGIFIGNAMGWYRQAPGKERELVAAISFSGGSTYYADSVKGRFTISRDNAKNTVYLQMNSLKPEDTAVYYCARRIGHGSRPYWLETWRYPYDYWGQGTQVTVSS	low polyreactivity
QVQLGESGGGLVQAGGSLRLSCAASGGILGYNAMGWYRQAPGKERELVATINWSGGSTYADSVKGRFTISRDNAKNTVYLQRNSLKPEDTADSYCNAVRKYWRQGTQVTVSS	low polyreactivity
QVQLGESGGGLVQAGGSLRLSCAASGIIFGYYAMGWYRQAPGKERELVAAITWSGGSTYYADSVKGRFTISRDNAKYTVYLQMNSLKPEDTAVYYCAASAYVQPYDYWGQGTQVTVSS	high polyreactivity
QVQLGESGGGLVQAGGSLRLSCAASGITFNGYAMGWSRQAPGKERQLVASAIRGTSGSTYYADSVKGRFTISRDNAKNTDYLQMNSLKPEDTTVYYCNADIVIQGVIYYYRNFEYWGQGTQVTVSS	low polyreactivity
QVQLGESGGGLVQAGGSLRLSCAASGLTFYLYAMGWYRQAPGKERELVAAITTSGGSTYYADSVKGRFTISRDTAKNTVYLQMNSLKPEDTAVYYCATQGALRGYGYWGQGTQVTVSS	high polyreactivity
QVQLGESGGGLVQAGGSLRLSCAASGLTFYLYVMGWYRQAPGTERELVAAISRRGGSTYYADSVKGRFTISRDNAKNTVYLQMNSLNPEDTAVYYCAASVYGTYRGIQYGYWGQGTQVTVSS	high polyreactivity
QVQLGESGGGLVQAGGSLRLSCAASGRIFQHNTMGWYRQAPGKEREFVAAIRRSGGSTYYADSVKGRFTISRDNAKNTVYLQMNSLKPEDTAVYYCAARDYPTGTRRWGGGDSWGQGTQVTLSS	low polyreactivity
QVQLGESGGGLVQAGGSLRLSCAASGRIFRTNAMGWYRQAPGKERELVAAITFSGGGTYYADSVKGRFTISRDNAKNTVYLQMNSLKPEDTAVYYCATDWYYEYYDWGQGTQVTVSS	low polyreactivity
QVQLGESGGGLVQAGGSLRLSCAASGRTLSYYAMGWYRPAPGNDRELVAAISGSAGSTYYADSVKGRFTISRDNAKNTVYLQMNSLKPEDTAVYYCAAYIYSYDEGYYWGQGTQVTVSS	high polyreactivity
QVQLGESGGGLVQAGGSLRLSCAASGSIFGGNAMGWYRQAPGKERELVAAISTSGSTTYYADSVKGRFTISRDNAKNTVYLQMNSLKPEDTAVYYCARRGGVRGYYGGRRSKMDYWGQGTQVTVSS	low polyreactivity
QVQLGESGGGLVQAGGSLRLSCAASGSTRGYTMGWYRQAPGKERELVAVISYSGGRTYYADSVKGRFTISRDNAKNTVYLQMNSLKPEDTAVYYCNAYYYQFRGIRVSGGYWGQGTQVTVSS	high polyreactivity
QVQLGESGGGLVQAGGSLRLSCAPSGSPFPYYVMGWYRPAPGKERELVAAISKSGGSTYYADSVKGRFTISRDNAKNTVYLQMNSLKPEDPAVYYCAAAIRSYRGPRFNYWGQGTQVTVSS	high polyreactivity
QVQLGESGGGLVQAGGSLRLSSAASGRTFGSNAMGWYRQAPGKERELVAASSSTVSTNYADSEKGRFTISRDNAKNTVYLQMNSLKPEDTAVYYCNVTRHYSYVSEYDYWGQGTQVTVSS	low polyreactivity
QVQLGESGGGLVQAGGSLRLTCAASGSIFRYYAMGWYRQAPGKERELVAAIRWSGGRTYYADSVKGRFTISRDNAKNTVYLQMNSLKPEDTAVYDCAADPPHYKPNVRYYYWGQGTQVTVSS	high polyreactivity
QVQLGESGGGLVQAGGSVRLSCAASGRTFDTNAMGWYRQAPGKERELVAAISWSAGRTYYADSVKGRFTISRDNAKNTVYLQMNSLKPEDTAVYYCAARPPFIAYSWQKHGYYWGQGTQVTVSS	low polyreactivity
QVQLGESGGGLVQAGGSVRLSCAASGSTFWVNAMGWYRQAPGKERELVAAISNSGGSTYYADSVKGRFTISRDNAKNTVYLQMNSLKPEDTAVYYCAAAGGVDYDYWGQGTQVTVSS	low polyreactivity
QVQLGESGGGLVQEGGSLRLSCAASGSTLQDYDMGWYRQAPGKERELVAAITWSTGTTYYADSVKGRFTISRDNAKNTVYLQMNSLKPEDPAVYYCAVDSYYRATYTYRYDYWGLGTQVTVSS	low polyreactivity
QVQLGESGGRKVQPGGSLRLSCAASGYTIAWYVMGWSRQAPGKESELVAAISWSGGRTYYADSVKGRFTISRDNAKNTVYLQMNSLNPQDTAVYYCNAYWNPASKYDYWGQGTQVTVSS	high polyreactivity
QVQLGESGRGLVPAGGSLRLSCASSGSIFDRNARGWYRQAPGKERELVAAISSRGGSTYYADSVKGRFTISRDNAKNTVYLQMNSLKPEDTAVYYCNKVRTYGYDYWGQGTQVTVSS	high polyreactivity
QVQLGESGRGLVQAGGSLRLSCAASGRTSWYYAMGWYSQAPGKERELVATSTRSTGSTYYADSVKGRFTISRDNAKNTVYLQMNSLKPEDTAVYYCAKRRKTQPFYIKWYRVDYWGQGTQVTVST	high polyreactivity
QVQLGETGGGLVQAGGSLRLSCAATGSIFRYNAMGWYRQAPGKERELVAAISGRGTSTYYADSVKGRFTISRDNAKNTVYLQMNSLKPEDTAVYYCAAVYFSSFLVEYYYWGQGTQVTVSS	high polyreactivity

Sequence	polyreactivity (PSR sort gate)
QVQLHESGGGLVQAGGGLRLSCAASGSISSTGFMGWYRQAPGKESEPVAAIAPGTTTYYADSVKGRFTISRDNAKNTVYLHMKSLRPEDTAVYYCAVFTDNRVAFLYWGEGTQVTVSS	low polyreactivity
QVQLHESGGGLVQAGGGLRLTCAASGSISSTGFMGWYRQAPCKELEPVAAIAPGPTTYYADSGKGRFTISRDNAKNTVYLQMTSPRPEDTAVNYGAVFTDNRVAFLYWGQGTQVTVSS	low polyreactivity
QVQLHESGGGLVQAGGSLRLSCAASGTISVTYNMGWYRQAPGKEREFVAGNSTGATTNYADSVKGRFTISRDNAKNTVYLQMNSLKPEDTAVYYCAAHIYRQDHFYYWGQGTQVTVSS	low polyreactivity
QVQLHESGGGLVQAGGSLRRSCAASGTISYAGPMGWYRQAPGKEREFVAGIGVGSNTNYADSVKGRYTIIRDNAKNTVYLQMNSLKPEDTAVYYCAVGGYAPLGRPYWGQGTQVTVSS	low polyreactivity
QVQLHESGGGLVQAGRGLRLSCPASGSITSTGFMGSYRQPPGKEREPVAAIAPGTTTYYADSVKGRFTISRDNAKYTEYLQMNSLRPEDTAVYYCAVFTDNRVAFLYWGQGTQVTVSS	low polyreactivity
QVQLHESGGVLVQAGGSLRLSCAASGTISVHYNMCWYRQEPRQEREFVAGNSTGATTNYADSVKGRFTISRDNENNTVYLQMNSLKPEDTAVYYCAAHIYGQDHFYYWGQGTQVTVSS	low polyreactivity
QVQLHESVGGLVQAGVSLRLSCEASGTNFTARFIGWYRQAPGKERELVATITDGCYTNHADSVNGRFTISRDNAKNTVYLTMNSLKPEVAAVYYCAAGDVDNDTLMYWGQGSQVTVSS	low polyreactivity
QVQLIESGGGLVQAGGSLRLSCAASGSTCDRNSMGWYRPAPGKERELVAAIDSDVNTYYADSVKGRFTISRDKAKNTVYLQMNSLTPEDTAVYYCAADYYSWPYDYWGQGTQVTVSS	low polyreactivity
QVQLLEIGGGLVQAGGSLRQSCMASGSILGDRMSWYRQAPGKEHELVATIFDGGITYYADSMKGRFTISRDNAKNTVYLQMNSLRPEDTAVYYCGASFDGYRYHVYCGQGTQVTVSS	low polyreactivity
QVQLLESAGGLVQAGGSLRLSCAASGFIYIPYAMGWYRQAPGKERELVAAISTRGGGTYYADSVKGRFTISRDNAKKPVYLQMNSVKPEDTAVYYCNKQAFYNGRVGYDYWGQGTQVTVSS	low polyreactivity
QVQLLESCGGLVQAGGSLRLSCAASGSILTQYAMGWYRQAPGKERELVAAITGRGGSTYYADSVKGRFTISRDIAMYTVYLEMNSLKPEDTAVFYCAAEERYAYRYDYWGQGTQVTVSS	high polyreactivity
QVQLLESGGGIVKAGGFLRLSCAASGSTFRRYAMGRYREAPGIERELVAAITGRGGSTSYADSVKGRFTISRDNAMNTVYLQMNSLKPEDTSVYYCAADDKYFYPGNGYWGQGTQVTVSS	high polyreactivity
QVQLLESGGGLDQAGGILRLSCASSGRTFNWYAMGWYRQAPGKEREFVAAINWSGGSTYYADSVKGRFTISRDNAKNTVYLQMNSLKPEDTAVYYCNKYPVGYRMYYWGQGTQVTVSS	low polyreactivity
QVQLLESGGGLGQAGGSLRLSCAASGIIFRDSGMGWYRQAPGKEREFVATITYSGGGTYYADSVKGRFTISRDHAKNTVYLQMNSLKPEDTAVYYCAAYPFYYDLAYDYWGQGTQVTVSS	low polyreactivity
QVQLLESGGGLLQAGGSLRLSCAASGITLIGNAMGWYRQAPGKESELVAAISKSGGNTFYAVSVKGRFTISRDNAKNTVYLQMNSLKPEDTAVYYCAADGYYGYYSQYEYLYYYWGQGTQVTVSS	high polyreactivity
QVQLLESGGGLVEAGGSLRLSCSASGSTYNAMGWYRQATGKEREFVAYITTGGGGTYYADSVKGRFTISRDNAKNTVYLQMNSLKPEETADYYCAAEDYRTRTYVYRYRYYFWGQGTQVTVAS	high polyreactivity
QVQLLESGGGLVPAGGSLRLSCAASGRIFSRYAMGWYRQAPGKERELVAAISRNGGSTYYADSVKGRFTISRDNAKNTVYLQMISLKPEDTAVYYCAASYFIYHYDFDYWGQGTQVTVSS	high polyreactivity
QVQLLESGGGLVPSRGSLRLSCAASGFIFGHNTMGWYRQAPGKERELVARITSSGGGTNYADSVKGRFTISRDNAKNTVYLQMNSLKPEDTAVYYCAAELLYWGYYDYDYWGQGTQVTVSS	high polyreactivity
QVQLLESGGGLVQAGGILRLSCAASGIIFRYYTMGWYRPAPGKERELVAAITSGGSTNYADSVKGRFTISRDNAKHTVYLQMNRLKPEDTAVYYCRQLSVWGYDYWGQGTQVTVSS	high polyreactivity
QVQLLESGGGLVQAGGRLRLSCAASGSIFLWNAMGWYRQAPGKERELVAAITNIGGRTYYADSVKGRFTISRDNAKNTVYLQMNSLKPEDTAVYYCNVVVKGAWDYYPYDYWGQGTQVTVSS	high polyreactivity
QVQLLESGGGLVQAGGSHRLSCAASGIIFQWNVMGWYRQAPGKERELVASITSGSSTHYADSVKVRFTISRDNAKNSVYLQMNSLKPEDTAVYYFAADGALRAEYDVEIEYDYWGQGTQVNVSS	low polyreactivity
